# Source: the DeepSol protein solubility set
# Test: soluble on expression in E. coli; label from the status in PepcDB or PDB records
row,Sequence,soluble on expression in E. coli
1,MSLAQGIIENHLSKRSALLEQEKTSRHDYAFKQSMSPVAKTAAKVLADIRKKELKSIWSPTTTSNEKRDLKDVTFPGMSFTLSRDRMQKTALWKIVSAMPKGCLLHAHMEAMIDIDWMIEQAIELPGYYISSPVPLCPRTGSAGKWSEPFQFSYRPRLGSGANARNGSEPEISIWQAGYTPGRLVPVAAAAKMYPGGVEAFKAWAVSRMTINEEEALEHHHGIDDVWDKFRSCFLAIGGLFFTEPIFRRCIPRLLQQLHDDGIKYVELRLAPNPFYREGSNEAEPDFLYFLQCFQEEVDAYMSSPTGRGFWGAKIIWTAIRSFPDDLIKESMIHCLNSKKAYPSVITGFDFVGQEDAGRPLVDLLPLCKWFQQQCADEQLQIPFFLHAGECLGDGNDTDSNLVDAILLNSRRIGHAFSLYKHPLLIDLVKDKNILIEMCPISHEVLRLTSNILMHPMPALQARGVAVSLNNDDPAVLGHGKNGLSHDFYQVTAAFENTGLAGLATMAEDSIRWAAFEDETDSEWLQGIDGKGNGLKASRLAEWRTAFDEWCAWVVQEFGAESQIEGHHHHHH,soluble
2,MSKRILFIVGSFSEGSFNRQLAKKAETIIGDRAQVSYLSYDRVPFFNQDLETSVHPEVAHAREEVQEADAIWIFSPVYNYAIPGPVKNLLDWLSRSLDLSDPTGPSVLQDKIVTVSSVANGASPEEVFEDYRSLLPFIRMHLVDQLTGVPINSEAWSTGILKVSAEKLAELSAQADALLSAIENLEHHHHHH,soluble
3,MSLRRALIIDDEEAVLKIITHFIEMKDMPIKIVGKATSGDEAVDKIIGLEPDIVFIDIQMPIYNGLEVIEKTSHLSKKINFVVITAFNYFEYAQKALRLNVKDILLKPLDMKEFTKSVEKIIGYQYTNNDLLNEILEYINLNYSNDLKLNDCARLFLTNPSNISRIFKSNLNTTFISYLNHIRIEKSIELLENTTKSINEIAEIVGYNSLNNFYKNFKIEKGMTPKVYKLNTEGHHHHHH,not soluble
4,MNKLQSYFIASVLYVMTPHAFAQGTVTIYLPGEQQTLSVGPVENVAQLVTQPQLRDRLWWPGALLTDSAVKAKALKDYQHVMAQLASWEAEADDDVAATIKSVRQQLLNLNITGRLPVKLDPDFVRVDENSNPPLVGNYTLYTVQRPVTITLLGAVSGAGQLPWQAGRSVTDYLQDHPRLAGADKNNVIVITPEGETVVAPVALWNKRHVEPPPGSQLWLGFSAHVLPEKYADLNDQIVSVLTQRVPD,soluble
5,MAYSKIRQPKLSDVIEQQLEFLILEGTLRPGEKLPPERELAKQFDVSRPSLREAIQRLEAKGLLLRRQGGGTFVQSSLWQSFSDPLVELLSDHPESQFDLLETRHALEGIAAYYAALRSTDEDKDRIRELHHAIELAQESGDLDAESEAVLQYQIAVTEAAHNVVLLHLLRCMEPMLAQNVRQNFELLYARREMLPLVSTHRTRIFEAIMAGKPEEAREASHRHLAFIEEIMLDRSREESRRERALRRLEQRKN,not soluble
6,MTQDYRVLLYYQYVPIEDGETFAQKHLADCKELGLKGRILVADEGINGTVSGTIEQTNAYMELMKNDPRFSSTIFKIDEAEQNAFKKMHVRYRPELVNLSLEDDVNPLELTGAYLDPKEFREAMLDENTVVIDARNDYEFDLGHFRGAIRPEIRSFRELPQWIRDNKEQFMEKRVLTYCTGGIRCEKFSGWLVREGFKDVGQLHGGIATYGKDPEVQGDLWDGQMYVFDSRIAVPINQKEHVIVGRDWFDGSPCERYINCGNPECNRQMLASEENEAKYLGACSHECRVHPNNRYIKAHQLSNQEVQERLALLEKDLASLEHHHHHH,soluble
7,SMCEKVISVGQTVITKHRNTRYYSCRVMAVTSQTFYEVMFDDGSFSRDTFPEDIVSRDCLKLGPPAEGEVVQVKWPDGKLYGAKYFGSNIAHMYQVEFEDGSQIAMKREDIYTLDEELPKRVK,soluble
8,MSLQSSEAIDTEPKTISPVPEGRPVLVLDLDETCIYSTPAKPEKQQNFPIRIKRRNVFIQVRPGMQECIRRLSEKYEIFFYTASTKIYANKVIDAIAPFVDNEHRFFVSRDQLKDLTLINRPLGKVLLLDNSACSAQKNNLLLIKTWIGDPNDNAFTNEVMPLLDNLVKESDIPSACRNLVSSRRYPSLYVIRSEGHHHHHH,soluble
9,GMKNIKIMRLVTGEDIIGNISESQGLITIKKAFVIIPMQATPGKPVQLVLSPWQPYTDDKEIVIDDSKVITITSPKDDIIKSYESHTSEIITPSGLITET,soluble
10,MRADVKPVTVKLVDSQATMETRSLFAFMQEQRRHSIMFGHQHETTQGLTITRTDGTQSDTFNAVGDFAAVYGWDTLSIVAPKAEGDIVAQVKKAYARGGIITVSSHFDNPKTDTQKGVWPVGTSWDQTPAVVDSLPGGAYNPVLNGYLDQVAEWANNLKDEQGRLIPVIFRLYHENTGSWFWWGDKQSTPEQYKQLFRYSVEYLRDVKGVRNFLYAYSPNNFWDVTEANYLERYPGDEWVDVLGFDTYGPVADNADWFRNVVANAALVARMAEARGKIPVISGIGIRAPDIEAGLYDNQWYRKLISGLKADPDAREIAFLLVWRNAPQGVPGPNGTQVPHYWVPANRPENINNGTLEDFQAFYADEFTAFNRDIEQVYQRPTLIVK,soluble
11,MENKMESIEQQVEVLLEQEPQLLPAAMAERLGVTEFDVVAALPQEMVAISPGEQAQTILESLVGFGPVTTIVHSFGSIFEVKAPFPKGKVARGYYNLMGREGELHGHLKLDNVKNIALVSKPFMGRESHYFGFFSECGSNIFKVYLGRDEKRELIAEQVTAFRAMQAELNQLEHHHHHH,not soluble
12,MCFWPVWNGKHCPHSTGMPATLPGHRKPTFSWPVSISVMKMPDTHTMVATVSRRILPGKPRQCFSLAVLILPLLEHGGYAITELTVTRRNTCGYSFVSGCPTVFSSRDLVGSGEEVRQARDTFLYINTDPTQGWIHYEPAAFSAGAQNKHLPMASLTGSGKHPAAARLNPVSRGPQFITVSLIIALLGTAWYGWQYYERWQTEKAAQAAVARQATEERITPPWPGLPETDAFIRGCADIWTSLPLSAAGWRYSLAECSTDGGSGNLRASYTNTAGATVTDFIRRISDMTDSRPFIVMPEGKTGGIGLPVTFRLSENAVTVDALPETAVLQERLTSLAQSMQLKLDWQEVNNSVTDENGQIIQPPWKEYDLQIQTTLPAHHLAERLKEPSVRFISVTRQLENGRFHYQFTGKYYARLEHHHHHH,not soluble
13,MRCLALDIGGTKIAAAIVKNGEIEQRQQIHTPRENVVEGMHQALGKLLADYEGQFDYVAVASTGIINNGILSALNPKNLGGLAEFPLKASIAKHTDKPIGLLNDAQAATYAEYQLQNSEQVSNFVFITVSTGVGGGIVLNQILQTGSRGIAGHIGHTLADPNGAICGCGRRGCVEAIASGRAIEAVSSQWEEPCDPKEVFERFRKNDEKATALVERSAKAIANLIADLVISLDIQKIAIGGSVGLAEGYLSLVEKYLQDFPSIYCCEIETAKFGQDAGLIGAAYWVKDVLLDKPEGTIYGLEHHHHHH,soluble
14,MAHHHHHHMERVRYRSSVTRKLIDLYDEVAELYDCRENMRNQVTQAMRIDPRYCKERHGEVRLACKPTLQQQSAVESVENALEGLHDAVHELVAAYLTQEEKRHLGIDTHLFQTSTEKANTYQYAPPPPKPRSSSSNAARRARQKTSAAATFPHPSTRHREVRVEKEEGDAHENTAATAPTPAAPTLTVPVDTPAPQQQPLTNTTTNKKISNSVWDSSAPAASAAFSSAAISLPASSVKLAQQSVVELSQLAAPQQPVTSSSQPLCSSIVHVAAPEKHEDGSGTAAEQKPVAASHTQDTEIAEGTPERVVASAVSASTLSVTWPTDTGAGSTLHLPTGSQPPLATERLLKVPVSSPDALTPIAKTPPAIPPRPTSVQAQAQEPALTSANPTPPPSHPPSQDAVAASCNDASAAKASASQARTAVVGFKRFLIDSDSNSSC,soluble
15,MSAASTTSTPAAAAVAPQQPESLYRVVQTLGEGAFGEVLLIVNTKNPEVAAAMKKINIANKSKDFIDNIRKEYLLQKRVSAVGHDNVIRMIGMRNDPQFYYLFLEYADGGELFDKIEPDCGMSPVFAQFYFKQLICGLKFIHDNDVVHRDIKPENLLLTGTHVLKISDFGMATLYRNKGEERLLDLSCGTIPYAAPELCAGKKYRGPPVDVWSSGIVLIAMLTGELPWDRASDASQSYMGWISNTSLDERPWKKIDVRALCMLRKIVTDKTDKRATIEQIQADPWYQHNFGQVETPNGRPLKRARNNDENITCTQQAECSAKRRHLETPNEKSTLAERQNASFSQPTKTEDLLLTQHIDMSQTNSNLLQRMVCRMTRFCVVTDIRSTYQKVARASEHAGFGVRETDDYRLLVTWREVSMMVSLYTMGDIPDKPRVMVDFRRSRGDGIQFKKMFMDVRNRMHEWICTDGNNWLANLGYVPRNPQIVNGGGVNVEHSASSINVDV,not soluble
16,MIIYFIGTGGSEGIPVHLCDCNTCNEARKFRFAQRRPSTLAVIGENGEVILFDVGTDIREFLNVPLDAIFLTHWHHDHIYGLYKLRWIARETNLYAPEGHADALILQDPKNLRPKIIKAGEKIRIGDIKVTSVKLNHQIETLGYIIEEDGKRVAILYDTKGLPPETREYLEDISPLRVAIVDATYPPGFVDPYHNNVNEAVEMSIDIAERIVLSHISHKNLPFLKLVNYTRKMWGGKVLVAYDGMVFYV,soluble
17,DVQLVESGGGLVQPGGSRKLSCAASGFTFSSFGMHWVRQAPEKGLEWVAYISSGSSTLHYADTVKGRFTISRDNPKNTLFLQMTSLRSEDTGMYYCARWGNYPYYAMDYWGQGTSVTVSSAKTTPPSVYPLAPGSAAQTNSMVTLGCLVKGYFPEPVTVTWNSGSLSSGVHTFPAVLQSDLYTLSSSVTVPSSPRPSETVTCNVAHPASSTKVDKKIVPRDC,soluble
18,MSLGEVAPTLAAYDLQGEAVALEQWEGKLVYLNFWSVNCGGCLAEMATLNQLSQEYQDQAVVVAINTDPEQVEIAPVLAQHNINYPVIRDQLGITQERYQVIGTPTSFLIDRNGKVIEWHQGVRNEQELTALFKQKVSEKEGHHHHHH,not soluble
19,SNADDYTAGKEYVELSSPVPVSQPGKIEVVELFWYGCPHCYAFEPTIVPWSEKLPADVHFVRLPALFGGIWNVHGQMFLTLESMGVEHDVHNAVFEAIHKEHKKLATPEEMADFLAGKGVDKEKFLSTYNSFAIKGQMEKAKKLAMAYQVTGVPTMVVNGKYRFDIGSAGGPEETLKLADYLIEKERAAAKK,soluble
20,MSLSNDTVSGPSMQPSFENGQRLISVRHAQIKRGEVVIVKAPDEPGALYIKRVIGMPGEKIVSKNNQIYINNKKLSQPWLTQGKKMIDAGSDTFYSATQNFTMKSLARSRQFQQYYTKSQLNYINKYNRIPKETYFVMGDHRSVSKDSRYIGTIKRKNVVGVVKLRYWPLNEFKIYEGHHHHHH,not soluble
21,MAKTIAYDEEARRGLERGLNALADAVKVTLGPKGRNVVLEKKWGAPTITNDGVSIAKEIELEDPYEKIGAELVKEVAKKTDDVAGDGTTTATVLAQALVREGLRNVAAGANPLGLKRGIEKAVEKVTETLLKGAKEVETKEQIAATAAISAGDQSIGDLIAEAMDKVGNEGVITVEESNTFGLQLELTEGMRFDKGYISGYFVTDPERQEAVLEDPYILLVSSKVSTVKDLLPLLEKVIGAGKPLLIIAEDVEGEALSTLVVNKIRGTFKSVAVKAPGFGDRRKAMLQDMAILTGGQVISEEVGLTLENADLSLLGKARKVVVTKDETTIVEGAGDTDAIAGRVAQIRQEIENSDSDYDREKLQERLAKLAGGVAVIKAGAATEVELKERKHRIEDAVRNAKAAVEEGIVAGGGVTLLQAAPTLDELKLEGDEATGANIVKVALEAPLKQIAFNSGLEPGVVAEKVRNLPAGHGLNAQTGVYEDLLAAGVADPVKVTRSALQNAASIAGLFLTTEAVVADKPEKEKASVPGGGDMGGMDF,soluble
22,MGSVRKASAWLGLVDDNNDDERYYDDDYSEGPESGDAWVTDPRVKVASDVAEEKGRRIATVTPDSFRDARAIGELFRDGVPVIVNLTAMEGTDAKRVVDFAAGLIFGLRGSIERVSTRVFLLSPADTQVISGESAAHRSDGFFNQSLEHHHHHH,not soluble
